The test system of test [1] is BaF3/CRF2-4/zcytor11 cells. In words: Alamar Blue proliferation assay, BaF3/CRF2-4/zcytor11 cells. It is filed as cell-based, murine. The note with it: 3 days, then Alamar Blue. On the procedure:
BaF3, an interleukin-3 (IL-3) dependent pre-lymphoid cell line derived from murine bone marrow (Palacios and Steinmetz, Cell 41: 727-734, 1985; Mathey-Prevot et al., Mol. Cell. Biol. 6: 4133-4135, 1986), was maintained in complete media (RPMI medium (JRH Bioscience Inc., Lenexa, Kans.) supplemented with 10% heat-inactivated fetal calf serum, 2 ng/ml murine IL-3 (mIL-3) (R & D, Minneapolis, Minn.), 2 mM L-glutaMax-1™ (Gibco BRL), 1 mM Sodium Pyruvate (Gibco BRL), and PSN antibiotics (GIBCO BRL)). Prior to electroporation, CRF2-4/pZP7P was prepared and purified using a Qiagen Maxi Prep kit (Qiagen) as per manufacturer's instructions. […]
BaF3/CRF2-4/zcytor11 cells were spun down and washed in the complete media, described in Example 7A above, but without mIL-3 (hereinafter referred to as “mIL-3 free media”). […] Cells were then counted in a hemacytometer. […]
Proliferation of the BaF3/CRF2-4/zcytor11 cells was assessed using IL-TIF-CEE protein diluted with mIL-3 free media to 50, 10, 2, 1, 0.5, 0.25, 0.13, 0.06 ng/ml concentrations. […] Alamar Blue gives a fluourometric readout based on number of live cells, and is thus a direct measurement of cell proliferation in comparison to a negative control. […] Plates were read on the Finax™ plate reader (Molecular Devices Sunnyvale, Calif.) using the SoftMax™ Pro program, at wavelengths 544 (Excitation) and 590 (Emmission). […]
On the technique in general: Resazurin is reduced to fluorescent resorufin, in cell work by metabolically active cells.

In test [2] the target is T1, IL-TIF (Homo sapiens, UniProt Q9GZX6).
T1 sequence (Q9GZX6 34-179): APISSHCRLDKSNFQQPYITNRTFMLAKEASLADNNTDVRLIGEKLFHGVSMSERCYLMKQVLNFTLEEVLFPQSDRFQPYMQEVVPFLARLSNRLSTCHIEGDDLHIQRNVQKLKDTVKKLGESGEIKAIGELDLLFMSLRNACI
Put plainly: Inhibition of IL-TIF activation of luciferase reporter in MES 13 cells by zcytor16-Fc4. It is filed as cell-based. The note with it: even at the highest dose of IL-TIF used. As to the method: MES 13 cells (ATCC No. CRL-1927) were plated at 10,000 cells/well in 96-well tissue culture clusters (Costar) in DMEM growth medium (Life Technologies) supplemented with pyruvate and 10% serum (HyClone). Next day, the medium was switched to serum free DMEM medium by substituting 0.1% BSA (Fraction V; Sigma) for serum. This medium also contained the adenoviral construct KZ136 (below) that encodes a luciferase reporter mini-gene driven by SRE and STAT elements, at a 1000:1 multiplicity of infection (m.o.i.), i.e. 1000 adenoviral particles per cell. After allowing 24 h for the incorporation of the adenoviral construct in the cells, the media were changed and replaced with serum-free media. Human recombinant IL-TIF with or without a recombinant zcytor16-Fc4 fusion was added at the indicated final concentration in the well (as described in Table 11, below). Dilutions of both the IL-TIF and zcytor16-Fc4 were performed in serum-free medium. 0.1% BSA was added for a basal assay control. 4 h later, cells were lysed and luciferase activity, denoting activation of the reporter gene, was determined in the lysate using an Luciferase Assay System assay kit (Promega) and a Labsystems Luminoskan luminometer (Labsystems, Helsinki, Finland). Activity was expressed as luciferase units (LU) in the lysate.
The construction of the adenoviral KZ136 vector was as follows. […]
Background: Reporter assays use an easily measured gene product as a stand-in for the process of interest.

For test [3], the target named is T1, IL-TIF. Put plainly: Antagonism of IL-TIF-induced proliferation of BaF3/CRF2-4/zcytor11 cells (Alamar Blue). It is filed as cell-based. Further details: made in house; host or cells: BHK 570 cells, pHZ200-CEE vector, purified from conditioned media. To be noted: zcytor16 at 10 μg/ml; IL-TIF at all concentrations (0.06-50 ng/ml). The text has this:
Purified IL-TIF-CEE (Example 19) was used to test for the presence of proliferation activity as described below. Purified zcytor16-Fc4 (Example 11) was used to antagonize the proliferative response of the IL-TIF in this assay as described below.
BaF3/CRF2-4/zcytor11 cells were spun down and washed in the complete media, described in Example 7A above, but without mIL-3 (hereinafter referred to as “mIL-3 free media”). The cells were spun and washed 3 times to ensure the removal of the mIL-3. Cells were then counted in a hemacytometer. Cells were plated in a 96-well format at 5000 cells per well in a volume of 100 μl per well using the mIL-3 free media.
Proliferation of the BaF3/CRF2-4/zcytor11 cells was assessed using IL-TIF-CEE protein diluted with mIL-3 free media to 50, 10, 2, 1, 0.5, 0.25, 0.13, 0.06 ng/ml concentrations. 100 μl of the diluted protein was added to the BaF3/CRF2-4/zcytor11 cells. […] Alamar Blue gives a fluourometric readout based on number of live cells, and is thus a direct measurement of cell proliferation in comparison to a negative control. […] Plates were read on the Finax™ plate reader (Molecular Devices Sunnyvale, Calif.) using the SoftMax™ Pro program, at wavelengths 544 (Excitation) and 590 (Emmission). […] The response, as measured, was approximately 15-fold over background at the high end of 50 ng/ml down to a 2-fold induction at the low end of 0.06 ng/ml. […]

In test [4] the target is T1, IL-TIF. Put plainly: COS cell secretion trap binding assay. To be noted: 1-3 μg/ml zcytor16sR-Fc4, COS cells transfected with human IL-TIF cDNA. Further details: expressed in transfected cells; host or cells: COS cells, pZP7 expression vector. As to the method:
COS cell transfections were performed as follows: A mixture of 0.5 μg DNA and 5 μl lipofectamine (Gibco BRL) in 92 ul serum free DMEM media (55 mg sodium pyruvate, 146 mg L-glutamine, 5 mg transferrin, 2.5 mg insulin, 1 μg selenium and 5 mg fetuin in 500 ml DMEM) was incubated at room temperature for 30 minutes and then 400 μl serum free DMEM media added. A 500 μl mixture was added onto COS cells plated on 12-well tissue culture plate at 1.5×10^5 COS cells/well and previously incubated for 5 hours at 37° C. An additional 500 μl 20% FBS DMEM media (100 ml FBS, 55 mg sodium pyruvate and 146 mg L-glutamine in 500 ml DMEM) was added and the plates were incubated overnight.
The secretion trap was performed as follows: Media was rinsed off cells with PBS and fixed for 15 minutes with 1.8% Formaldehyde in PBS. Cells were then washed with TNT (0.1M Tris-HCl, 0.15M NaCl, and 0.05% Tween-20 in H2O). Cells were permeated with 0.1% Triton-X in PBS for 15 minutes and washed again with TNT. […]

B1: IL-TIF-CEE: human IL-TIF polypeptide (SEQ ID NO:15) containing C-terminal GluGlu (EE) tag, purified from BHK cells; ligand of zcytor16 (protein, listed as Homo sapiens)
chain: MAALQKSVSSFLMGTLATSCLLLLALLVQGGAAAPISSHCRLDKSNFQQPYITNRTFMLAKEASLADNNTDVRLIGEKLFHGVSMSERCYLMKQVLNFTLEEVLFPQSDRFQPYMQEVVPFLARLSNRLSTCHIEGDDLHIQRNVQKLKDTVKKLGESGEIKAIGELDLLFMSLRNACI
modifications: C-terminal GluGlu tag
notes: ligand of zcytor16
Take B1: the “proliferative response (induction)” value in test [1] (IL-TIF-CEE 0.06 ng/ml) came out at 2 fold induction. In test [1] (IL-TIF-CEE 50 ng/ml), the “proliferative response over background” value is reported as “approximately 15 fold over background”.

B2: zcytor16-Fc4: soluble zcytor16 polypeptide (residue 22 to 231 of SEQ ID NO:2; SEQ ID NO:13) fused to a C-terminal Fc4 tag (protein)
chain: TQSTHESLKPQRVQFQSRNFHNILQWQPGRALTGNSSVYFVQYKIYGQRQWKNKEDCWGTQELSCDLTSETSDIQEPYYGRVRAASAGSYSEWSMTPRFTPWWETKIDPPVMNITQVNGSLLVILHAPNLPYRYQKEKNVSIEDYYELLYRVFIINNSLEKEQKVYEGAHRAVEIEALTPHSSYCVVAEIYQPMLDRRSQRSEERCVEIPEPRSSDKTHTCPPCPAPEAEGAPSVFLFPPKPKDTLMISRTPEVTCVVVDVSHEDPEVKFNWYVDGVEVHNAKTKPREEQYNSTYRVVSVLTVLHQDWLNGKEYKCKVSNKALPSSIEKTISKAKGQPREPQVYTLPPSRDELTKNQVSLTCLVKGFYPSDIAVEWESNGQPENNYKTTPPVLDSDGSFFLYSKLTVDKSRWQQGNVFSCSVMHEALHNHYTQKSLSLSPGK
Turning to B2, the “antagonism of the response of MES 13 cells to IL-TIF” value in test [2] is given as “effectively blocks the response to IL-TIF”. Also, the “proliferative response to IL-TIF in the presence of zcytor16” value in test [3] is reported as “brought down to background”. The “binding of zcytor16sR/Fc4 to COS cells transfected with human IL-TIF” value in test [4] is reported as “positive binding”.
